Measurements reported in the supplement of paper PMC10065799, “High-throughput profiling of sequence recognition by tyrosine kinases and SH2 domains using bacterial peptide display” (eLife, 2023).

Columns and labels:
AncSZ = assay: phosphorylation enrichment, bacterial display (enrichment ratio); higher = better substrate or ligand; peptides without Tyr show the background
Fes = Fes (UniProt P07332); assay: as above
Hck = Hck (UniProt P08631); assay: as above
c-Abl (mouse) = assay: as above
MERTK = MERTK (UniProt Q12866); assay: as above
EPHB1 = EPHB1 (UniProt P54762); assay: as above
EPHB2 = EPHB2 (UniProt P29323); assay: as above
c-Src = assay: as above
FGFR1 = FGFR1 (UniProt P11362); assay: as above
Fer (mouse) = assay: as above
FGFR3 = FGFR3 (UniProt P22607); assay: as above
Jak2 = Jak2 (UniProt O60674); assay: as above
Fyn = Fyn (UniProt P06241); assay: as above
SHP2-C SH2 = assay: SH2 binding enrichment of the phosphorylated peptide, bacterial display (enrichment ratio); higher = better substrate or ligand; peptides without Tyr show the background
c-Src SH2 = assay: as above
Grb2 SH2 = Grb2 SH2 (UniProt P62993); assay: as above
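Throughout, for SH2 binding enrichment of the phosphorylated peptide, bacterial display: peptide library displayed on the E. coli surface as eCPX fusions, selected cells deep-sequenced, score is each peptide's frequency after selection divided by its frequency in the input.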
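Throughout, for phosphorylation enrichment, bacterial display: 11-residue human phosphosite peptides and single-mutation variants displayed on the E. coli surface, counted by deep sequencing, each peptide's frequency after selection divided by its frequency in the unselected input library; frequency after pTyr selection over input frequency; kinase dosed for 20-30% of maximal phosphorylation in three min.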

Sequence of FGFR3 (P22607 whole entry, looked up): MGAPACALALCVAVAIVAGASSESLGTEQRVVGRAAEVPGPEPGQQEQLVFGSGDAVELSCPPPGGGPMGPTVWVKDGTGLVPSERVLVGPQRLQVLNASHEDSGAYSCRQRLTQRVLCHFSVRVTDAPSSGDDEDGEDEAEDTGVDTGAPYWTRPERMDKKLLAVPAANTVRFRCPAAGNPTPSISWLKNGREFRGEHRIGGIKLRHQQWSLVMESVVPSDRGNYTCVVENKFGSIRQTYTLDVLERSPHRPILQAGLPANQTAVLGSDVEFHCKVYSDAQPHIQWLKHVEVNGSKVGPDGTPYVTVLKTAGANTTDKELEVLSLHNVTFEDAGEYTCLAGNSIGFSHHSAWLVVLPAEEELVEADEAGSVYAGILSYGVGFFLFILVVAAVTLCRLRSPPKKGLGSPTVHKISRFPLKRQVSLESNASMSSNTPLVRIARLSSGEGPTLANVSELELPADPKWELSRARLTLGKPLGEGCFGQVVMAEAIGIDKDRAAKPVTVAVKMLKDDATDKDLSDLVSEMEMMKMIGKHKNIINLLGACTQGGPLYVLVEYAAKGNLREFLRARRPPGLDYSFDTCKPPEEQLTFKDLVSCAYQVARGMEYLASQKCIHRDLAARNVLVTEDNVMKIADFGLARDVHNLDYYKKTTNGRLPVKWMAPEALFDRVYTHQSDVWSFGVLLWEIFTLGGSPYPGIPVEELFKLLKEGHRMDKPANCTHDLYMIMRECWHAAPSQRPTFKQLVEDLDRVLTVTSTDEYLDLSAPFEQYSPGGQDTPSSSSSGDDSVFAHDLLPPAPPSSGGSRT
Sequence of MERTK (Q12866 whole entry, looked up): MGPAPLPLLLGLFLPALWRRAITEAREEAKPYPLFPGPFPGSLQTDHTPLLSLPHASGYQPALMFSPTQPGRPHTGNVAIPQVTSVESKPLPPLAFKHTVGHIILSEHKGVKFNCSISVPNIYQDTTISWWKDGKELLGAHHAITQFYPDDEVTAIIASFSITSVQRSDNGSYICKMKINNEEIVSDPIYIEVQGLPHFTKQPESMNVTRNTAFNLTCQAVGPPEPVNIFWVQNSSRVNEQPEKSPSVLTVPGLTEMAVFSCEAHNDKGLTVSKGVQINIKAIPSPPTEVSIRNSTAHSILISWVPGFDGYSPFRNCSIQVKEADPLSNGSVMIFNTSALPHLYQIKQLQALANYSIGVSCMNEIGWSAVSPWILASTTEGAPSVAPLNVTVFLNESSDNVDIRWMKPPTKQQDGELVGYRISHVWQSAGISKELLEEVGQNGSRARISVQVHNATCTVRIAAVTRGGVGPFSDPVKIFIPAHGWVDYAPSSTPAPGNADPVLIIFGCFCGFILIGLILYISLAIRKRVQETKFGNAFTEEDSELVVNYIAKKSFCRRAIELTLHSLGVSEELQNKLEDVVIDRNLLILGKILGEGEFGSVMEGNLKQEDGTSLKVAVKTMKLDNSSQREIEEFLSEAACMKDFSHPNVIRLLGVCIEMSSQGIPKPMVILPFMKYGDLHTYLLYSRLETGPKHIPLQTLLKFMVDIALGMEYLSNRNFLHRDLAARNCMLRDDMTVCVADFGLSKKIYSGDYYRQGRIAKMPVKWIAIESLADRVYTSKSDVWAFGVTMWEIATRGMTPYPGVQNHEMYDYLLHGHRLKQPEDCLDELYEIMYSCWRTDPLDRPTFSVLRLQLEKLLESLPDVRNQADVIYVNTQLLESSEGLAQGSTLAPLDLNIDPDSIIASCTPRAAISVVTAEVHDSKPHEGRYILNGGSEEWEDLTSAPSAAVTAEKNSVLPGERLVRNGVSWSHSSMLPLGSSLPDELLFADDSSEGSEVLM
Sequence of Jak2 (O60674 whole entry, looked up): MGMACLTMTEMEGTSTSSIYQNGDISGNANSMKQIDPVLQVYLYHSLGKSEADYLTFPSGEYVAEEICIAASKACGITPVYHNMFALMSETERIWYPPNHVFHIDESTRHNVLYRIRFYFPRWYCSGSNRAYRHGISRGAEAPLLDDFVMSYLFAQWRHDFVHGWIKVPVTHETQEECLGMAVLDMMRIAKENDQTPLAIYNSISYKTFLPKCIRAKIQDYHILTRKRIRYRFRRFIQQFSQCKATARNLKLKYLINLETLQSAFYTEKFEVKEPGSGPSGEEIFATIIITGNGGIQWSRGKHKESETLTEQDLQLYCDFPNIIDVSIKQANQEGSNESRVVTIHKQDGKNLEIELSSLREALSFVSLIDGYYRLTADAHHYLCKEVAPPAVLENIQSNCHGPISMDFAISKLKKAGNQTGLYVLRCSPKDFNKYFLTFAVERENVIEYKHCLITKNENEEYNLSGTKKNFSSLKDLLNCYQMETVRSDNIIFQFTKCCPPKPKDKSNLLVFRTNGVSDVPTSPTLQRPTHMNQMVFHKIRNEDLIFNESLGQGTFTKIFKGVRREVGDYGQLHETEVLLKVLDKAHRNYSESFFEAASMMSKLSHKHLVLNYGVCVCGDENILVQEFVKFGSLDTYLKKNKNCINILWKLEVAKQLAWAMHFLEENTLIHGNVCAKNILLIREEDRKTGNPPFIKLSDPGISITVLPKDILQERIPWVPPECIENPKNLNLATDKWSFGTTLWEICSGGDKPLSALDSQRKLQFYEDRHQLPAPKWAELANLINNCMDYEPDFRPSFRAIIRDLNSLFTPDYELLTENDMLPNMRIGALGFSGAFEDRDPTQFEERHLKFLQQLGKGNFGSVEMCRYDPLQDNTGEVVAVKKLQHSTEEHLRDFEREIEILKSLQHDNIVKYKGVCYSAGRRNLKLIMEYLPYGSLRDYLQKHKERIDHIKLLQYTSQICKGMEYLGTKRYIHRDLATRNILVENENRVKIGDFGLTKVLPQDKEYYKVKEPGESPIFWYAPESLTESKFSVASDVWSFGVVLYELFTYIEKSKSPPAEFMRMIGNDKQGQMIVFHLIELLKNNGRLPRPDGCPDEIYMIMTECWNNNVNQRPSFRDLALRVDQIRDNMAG
Sequence of FGFR1 (P11362 whole entry, looked up): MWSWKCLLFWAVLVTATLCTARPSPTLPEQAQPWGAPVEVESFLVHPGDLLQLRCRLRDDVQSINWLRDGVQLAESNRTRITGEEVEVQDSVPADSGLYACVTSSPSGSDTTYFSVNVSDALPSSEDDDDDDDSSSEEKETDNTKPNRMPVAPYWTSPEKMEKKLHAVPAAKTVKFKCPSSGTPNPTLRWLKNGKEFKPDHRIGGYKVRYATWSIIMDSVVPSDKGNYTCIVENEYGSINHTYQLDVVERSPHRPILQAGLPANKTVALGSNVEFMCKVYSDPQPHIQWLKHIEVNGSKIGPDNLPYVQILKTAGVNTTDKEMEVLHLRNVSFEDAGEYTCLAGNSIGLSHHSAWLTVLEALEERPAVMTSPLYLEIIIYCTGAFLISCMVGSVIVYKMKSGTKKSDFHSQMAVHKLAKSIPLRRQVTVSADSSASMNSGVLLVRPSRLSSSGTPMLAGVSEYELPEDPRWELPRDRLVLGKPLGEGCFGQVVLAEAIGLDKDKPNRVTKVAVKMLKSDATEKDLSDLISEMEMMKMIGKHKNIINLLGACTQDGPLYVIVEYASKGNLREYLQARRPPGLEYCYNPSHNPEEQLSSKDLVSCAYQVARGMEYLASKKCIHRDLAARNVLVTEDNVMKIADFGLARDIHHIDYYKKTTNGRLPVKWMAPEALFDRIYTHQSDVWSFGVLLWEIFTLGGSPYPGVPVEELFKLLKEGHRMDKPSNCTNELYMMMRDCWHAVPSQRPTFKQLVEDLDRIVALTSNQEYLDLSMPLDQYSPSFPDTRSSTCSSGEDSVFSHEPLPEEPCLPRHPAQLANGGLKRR
Sequence of Hck (P08631 whole entry, looked up): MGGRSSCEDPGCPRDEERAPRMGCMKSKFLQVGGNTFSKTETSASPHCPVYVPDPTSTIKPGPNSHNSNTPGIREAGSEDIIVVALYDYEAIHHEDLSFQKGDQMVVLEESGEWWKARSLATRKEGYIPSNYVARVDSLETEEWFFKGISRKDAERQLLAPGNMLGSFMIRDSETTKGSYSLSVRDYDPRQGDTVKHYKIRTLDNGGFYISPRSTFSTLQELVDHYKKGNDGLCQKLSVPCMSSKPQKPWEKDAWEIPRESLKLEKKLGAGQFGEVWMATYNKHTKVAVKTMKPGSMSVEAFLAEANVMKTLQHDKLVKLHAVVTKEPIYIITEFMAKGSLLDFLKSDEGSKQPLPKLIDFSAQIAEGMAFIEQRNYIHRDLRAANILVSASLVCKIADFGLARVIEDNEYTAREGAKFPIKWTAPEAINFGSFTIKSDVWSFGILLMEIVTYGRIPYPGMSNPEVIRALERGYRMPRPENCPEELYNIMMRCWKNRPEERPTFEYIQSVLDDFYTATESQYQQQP
Sequence of Fyn (P06241 whole entry, looked up): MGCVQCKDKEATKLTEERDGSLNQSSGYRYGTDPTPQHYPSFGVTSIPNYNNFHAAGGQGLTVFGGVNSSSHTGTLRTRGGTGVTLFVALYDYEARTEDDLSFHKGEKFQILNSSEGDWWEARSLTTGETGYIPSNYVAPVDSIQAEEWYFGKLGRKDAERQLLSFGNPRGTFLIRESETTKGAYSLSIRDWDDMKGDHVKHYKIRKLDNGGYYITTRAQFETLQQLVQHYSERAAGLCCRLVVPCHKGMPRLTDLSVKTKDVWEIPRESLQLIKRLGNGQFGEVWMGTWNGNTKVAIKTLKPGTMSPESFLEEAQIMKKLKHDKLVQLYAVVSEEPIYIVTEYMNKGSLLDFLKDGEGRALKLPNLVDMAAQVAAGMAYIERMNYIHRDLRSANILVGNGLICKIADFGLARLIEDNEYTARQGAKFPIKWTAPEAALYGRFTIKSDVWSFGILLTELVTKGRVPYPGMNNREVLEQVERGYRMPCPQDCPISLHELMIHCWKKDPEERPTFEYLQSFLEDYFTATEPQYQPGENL

Sequence	SH2 binding enrichment (SHP2-C SH2)	SH2 binding enrichment (c-Src SH2)	SH2 binding enrichment (Grb2 SH2)	phosphorylation enrichment (AncSZ)	phosphorylation enrichment (Fes)	phosphorylation enrichment (Hck)	phosphorylation enrichment (c-Abl (mouse))	phosphorylation enrichment (MERTK)	phosphorylation enrichment (EPHB1)	phosphorylation enrichment (EPHB2)	phosphorylation enrichment (c-Src)	phosphorylation enrichment (FGFR1)	phosphorylation enrichment (Fer (mouse))	phosphorylation enrichment (FGFR3)	phosphorylation enrichment (Jak2)	phosphorylation enrichment (Fyn)
GTSLIYWILFT [G6PC3_Y214_T216I]	0.695	0.593	0.742	1.18	1.56	1.74	1.43	1.46	1	0.749	2.67	1.17	0.55	1.38	1.59	2.42
DEEEEYEYMNR [ERBB3_Y1197_D1194E]	0.645	0.526	0.817	1.17	1.17	0.484	0.631	0.404	0.493	0.625	0.408	0.536	0.466	0.665	1	0.567
REDVFYTSKLW [AKR1C2_Y81_I79V]	0.729	0.511	0.807	1.52	1.45	0.802	1.25	1.3	0.759	0.631	0.662	0.742	0.422	1.05	1.41	0.89
RAADYYSQQMA [GBP6_Y334]	0.63	0.545	1.01	0.537	0.619	0.456	0.576	0.39	0.917	0.339	0.435	1.38	0.416	0.875	0.672	0.371
FAELVYTSFWH [ASS1_Y322_G324S]	0.612	0.624	0.907	2.31	1.89	7.37	14	7.38	2.99	3.44	6.82	5.31	8.86	4.28	2.11	8.65
GHRPVYSEDEQ [CHST6_Y362_Y358H]	0.736	0.641	1.1	1.05	1.13	0.564	0.757	0.437	0.429	0.523	0.48	0.495	0.501	0.707	0.894	0.474
RKQQLYTAMEE [CCDC39_Y593]	0.576	3.25	1.29	0.933	0.963	0.855	0.677	2.02	0.707	0.534	0.583	0.431	0.672	0.757	0.836	0.529

Further lines, with some results ahead:

SH2 binding enrichment (SHP2-C SH2)	SH2 binding enrichment (c-Src SH2)	SH2 binding enrichment (Grb2 SH2)	Sequence	phosphorylation enrichment (AncSZ)	phosphorylation enrichment (Fes)	phosphorylation enrichment (Hck)	phosphorylation enrichment (c-Abl (mouse))	phosphorylation enrichment (MERTK)	phosphorylation enrichment (EPHB1)	phosphorylation enrichment (EPHB2)	phosphorylation enrichment (c-Src)	phosphorylation enrichment (FGFR1)	phosphorylation enrichment (Fer (mouse))	phosphorylation enrichment (FGFR3)	phosphorylation enrichment (Jak2)	phosphorylation enrichment (Fyn)
0.598	0.465	0.679	ADGLEYPRTGL [MMUT_Y287_S288P]	0.722	0.835	0.47	0.528	0.319	0.425	0.55	0.288	0.414	0.47	0.59	0.495	0.508
0.788	0.815	0.951	KPGLVYNKVNP [SPRED3_Y72]	0.704	0.595	0.603	0.675	0.402	0.413	0.395	0.539	0.383	0.409	0.453	0.936	0.424
1.31	1.14	1.47	KWHREYNSKYV [RICTOR_Y835]	0.461	0.414	0.371	0.461	0.339	0.348	0.401	0.294	0.37	0.32	0.42	0.513	0.398
0.927	0.723	1.18	FRKNIYNVKST [SYNE2_Y575_YF]	0.469	0.439	0.251	0.39	0.335	0.385	0.378	0.355	0.357	0.348	0.355	0.384	0.398
0.531	0.579	0.707	DFPGIYSGFDD [POLR1C_Y33_N32I_YF]	1.31	1.3	6.28	0.806	0.814	0.692	0.585	7.13	0.531	0.782	0.768	1.1	9.82
0.893	0.388	0.855	TIWDSYTTNKV [GNB1_Y85_I80T]	0.964	1.11	0.473	0.699	0.463	0.537	0.452	0.496	0.509	0.485	0.633	1.19	0.444
0.7	0.65	0.947	TQRPFYKGGGG [TYROBP_Y112_YF]	0.48	0.512	0.42	0.624	0.331	0.221	0.31	0.403	0.346	0.331	0.438	0.451	0.314
0.769	1.31	1.03	NGRQCYSCRGN [PLAUR_Y217_K220R]	0.375	0.461	0.35	0.374	0.346	0.261	0.319	0.294	0.356	0.274	0.31	0.39	0.299
0.753	0.776	0.74	YARECYSALPQ [SARS2_Y52_G51C]	1.16	0.972	3.13	0.716	1.7	0.712	0.868	0.676	2.42	0.663	1.57	0.666	0.636
